B1: Mature human BMP2 (ligand, UniProt P12643 283-396, looked up)
chain: QAKHKQRKRLKSSCKRHPLYVDFSDVGWNDWIVAPPGYHAFYCHGECPFPLADHLNSTNHAIVQTLVNSVNSKIPKACCVPTELSAISMLYLDENEKVVLKNYQDMVVEGCGCR
notes: bone morphogenetic protein 2, human, mature growth factor; source: bought: R&D Systems
B2: Mature human BMP4 (ligand, UniProt P12644 293-408, looked up)
chain: SPKHHSQRARKKNKNCRRHSLYVDFSDVGWNDWIVAPPGYQAFYCHGDCPFPLADHLNSTNHAIVQTLVNSVNSSIPKACCVPTELSAISMLYLDEYDKVVLKNYQEMVVEGCGCR
notes: bone morphogenetic protein 4, human, mature growth factor; source: bought: R&D Systems
B3: N-terminal part of rat agrin (Agrin-Nterm) (domain or fragment)
chain: RSDVCRGMLCGFGAVCEPSVEDPGRASCVCKKNACPATVAPVCGSDASTYSNECELQRAQCNQQRRIRLLRQGPCGSRDPCANVTCSFGSTCVPSADGQTASCLCPTTCFGAPDGTVCGSDGVDYPSECQLLSHACASQEHIFKKFNGPCDPCQGSMSDLNHICRVNPRTRHPEMLLRPENCPAQHTPICGDDGVTYENDCVMSRIGATRGLLLQKVRSGQCQTRDQCPETCQFNSVCLSRRGRPHCSCDRVTCDGSYRPVCAQDGHTYNNDCWRQQAECRQQRAIPPKHQGPCDQTPSPCHGVQCAFGAVCTVKNGKAECECQRVCSGIYDPVCGSDGVTYGSVCELESMACTLGREIQVARRGPCDPCGQCRFGSLCEVETGRCVCPSECVESAQPVCGSDGHTYASECELHVHACTHQISLYVASAGHCQTCGEKVCTFGAVCSAGQCVCPRCEHPPPGPVCGSDGVTYLSACELREAACQQQVQIEEAHAGPCEPAECGSGGSGSGEDDECEQELCRQRGGIWDEDSEDGPCVCDFSCQSVPRSPVCGSDGVTYGTECDLKKARCESQQELYVAAQGACRGPTLAPLLPVAFPHCAQTPYGCCQDNFTAAQGVGLAGCPSTCHCNPHGSYSGTCDPATGQCSCRPGVGGLRCDRCEPGFWNFRGIVTDGHSGCTPCSCDPRGAVRDDCEQMTGLCSCRPGVAGPKCGQCPDGQVLGHLGCEADPMTPVTCVEIHCEFGASCVEKAGFAQCICPTLTCPEANSTKVCGSDGVTYGNECQLKAIACRQRLDISTQSLGPCQ
modifications: glycosylation at multiple sites (proteoglycan smear on SDS-PAGE)
notes: not agrin residues; rat agrin, residues Asp65-Gln865, amplified from rat agrin cDNA NM_175754.1; numbers count on: the protein encoded by NM_175754.1; Calculated molecular mass of the recombinant protein 88,054 Da

Assays:
[1] = target: B3; test: SPR; BIAcore X; BMP2, BMP4 or TGFβ1 immobilised on CM5 chips by amine coupling, Agrin-Nterm injected at 20 µl/min; 20 mM HEPES, 150 mM NaCl, 5 mM EDTA, 0.005% Tween 20, pH 7.5; global fit, 1:1 Langmuir model; conditions: both partners purified
[2] = target: Mature human TGFβ1 (human); test: as above
Mature human BMP4 = target: B2; test: SPR; solution-competition: constant concentration of growth factor (40 nM BMP2, 40 nM BMP4 or 4 nM TGFβ1) preincubated 30 min at room temperature with increasing Agrin-Nterm, injected over immobilised ECD of the receptor (BMPR1A or TGF-βsRII) on CM5; 20 mM HEPES, 150 mM NaCl, 5 mM EDTA, 0.005% Tween 20, pH 7.5; 50% decrease in kobs by the method of Nieba et al.; conditions: both partners purified
Mature human BMP2 = target: B1; test: as above; conditions: both partners purified
[3] = target: Mature human TGFβ1 (human); test: as above

Mature human TGFβ1 (human), sequence (P01137 279-390): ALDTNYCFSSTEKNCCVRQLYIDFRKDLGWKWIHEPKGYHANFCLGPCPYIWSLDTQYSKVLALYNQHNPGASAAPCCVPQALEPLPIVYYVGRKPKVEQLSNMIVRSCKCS

Binder: B1
- Kd [1]: 262 nM
- koff [1]: 0.000286 s⁻¹
- kon [1]: 1090 M⁻¹ s⁻¹

Binder: B2
- Kd [1]: 257 nM
- koff [1]: 0.000412 s⁻¹
- kon [1]: 1610 M⁻¹ s⁻¹

Binder: B3
- Kd [2]: 51.5 nM
- koff [2]: 0.000172 s⁻¹
- kon [2]: 3340 M⁻¹ s⁻¹
- IC50 (Mature human BMP4): 345 nM
- IC50 (Mature human BMP2): 12 nM
- IC50 [3]: 2000 nM

From paper PMC2874008, “Agrin Binds BMP2, BMP4 and TGFβ1” (PLoS ONE, 2010)
